Measured values from patent US20240166765A1 (ICONIC THERAPEUTICS, published 2024).
Where a chain is given by its changes, count along the chain named.

B1: 43D7 (antibody, human IgG1, kappa, V domains shown)
VH: QVQLQQWGAGLLKPSETLSLTCAVYGGSLSGYYWSWIRQPPGKGLEWIGEIGASGSTRYNPSLKSRVTISVDTSKNQFSLKLSSVTAADTAVYYCARDTPYYYEGGYYYYMDVWGKGTTVTVSS
VL: EIVLTQSPGTLSLSPGERATLSCRASDSVDSSYLAWYQQKPGQAPRLLIYGAFSRANGIPDRFSGSGSGTDFTLTISRLEPEDFAVYYCQQAGVVPYTFGGGTKVEIKR
notes: human IgG1
B2: 43D8 (antibody, human IgG1, kappa, V domains shown)
VH: B1 VH
VL: B1 VL with D27Q, D30S, Y33F, F53Y, N57T
notes: human IgG1; also called 43D8 mAb; test article
B3: 1G (antibody, V domains shown)
VH: EVQLLESGGGLVQPGGSLRLSCAASGFTFSSYAMAWVRQAPGKGLEWVSAISGSGGLTYYADSVKGRFTISRDNSKNTLYLQMNSLRAEDTAVYYCAKAPYGYYMDVWGKGTTVTVSS
VL: not shown
notes: Human anti-TF IgG1
B4: 29D (antibody, V domains shown)
VH: QVQLVESGGGVVQPGRSLRLSCAASGFTFHSRGMHWVRQAPGKGLEWVAVITYDGINKYYADSVEGRFTISRDNSKNTLYLQMNSLRAEDTAVYYCARDGVYYGVYDYWGQGTLVTVSS
VL: not shown
notes: Human anti-TF IgG1
B5: 29E (antibody, V domains shown)
VH: B4 VH with H30R, R32Y
VL: not shown
notes: Human anti-TF IgG1
B6: 39A (antibody, V domains shown)
VH: QVQLVQSGAEVKKPGSSVKVSCKASGGTFSSNAIGWVRQAPGQGLEWMGSIIPIIGFANYAQKFQGRVTITADESTSTAYMELSSLRSEDTAVYYCARDSGYYYGASSFGMDVWGQGTTVTVSS
VL: EIVMTQSPATLSVSPGERATLSCRASQSVSSNLAWYQQKPGQAPRLLIYGASTRATGIPARFSGSGSGTEFTLTISSLQSEDFAVYYCEQYNNLPLTFGGGTKVEIK
notes: Human anti-TF IgG1
B7: 54E (antibody, V domains shown)
VH: QVQLVQSGAEVKKPGASVKVSCKASGYTFANYYMHWVRQAPGQGLEWMGIINPSGGITVYAQKFQGRVTMTRDTSTSTVYMELSSLRSEDTAVYYCARGGSKVAALAFDIWGQGTMVTVSS
VL: DIQMTQSPSSLSASVGDRVTITCQASQDISNSLNWYQQKPGKAPKLLIYDASNLETGVPSRFSGSRSGTDFTFTISSLQPEDIATYYCQQYNFHPLTFGGGTKVEIK
notes: Human anti-TF IgG1

Each binder was assayed against T1, mouse TF ECD-His6 (mouse, UniProt P20352 29-251) (assay: BLI (ForteBio Octet)).
T1 construct: made in Expi293 cells; also called TF-His; mTF

Row | Binder | Kd [nM]
1 | B1 | 41.4
2 | B2 | 6.12

Each binder was assayed against T2, human Tissue Factor on MDA-MB-231 cells (human, UniProt P13726 33-295) (assay: flow cytometry, MDA-MB-231 cells; binding of 20 nM FVII-Fc-Alexa488 (competitor) left at 9.25 nM Ab).
T2 construct: also called TF; hTF

Row | Binder | % FVIIa [%]
3 | B3 | 7
4 | B4 | 6
5 | B5 | 5
6 | B6 | 2
7 | B7 | 11

These binders were tested against T2, human Tissue Factor on MDA-MB-231 cells (assay: cell-based or functional assay).

Row | Binder | % IL8, 2.56 nM Ab [%] | % IL8, 6.4 nM Ab [%] | % IL8, 16 nM Ab [%] | % IL8, 40 nM Ab [%] | % IL8, 100 nM Ab [%]
8 | B3 | 26 | 4 | 3 | 2 | 2
9 | B4 | 27 | 6 | 2 | 2 | 1
10 | B5 | 33 | 5 | 2 | 2 | 2
11 | B6 | 52 | 6 | 2 | 2 | 3
12 | B7 | 48 | 8 | 3 | 2 | 2

The binders below were run against T2, human Tissue Factor on MDA-MB-231 cells (assay: flow cytometry, MDA-MB-231 cells; binding of 20 nM FVII-Fc-Alexa488 (competitor) left at 83 nM Ab).

Row | Binder | % FVIIa [%]
13 | B3 | 7
14 | B4 | 3
15 | B5 | 2
16 | B6 | 2
17 | B7 | 3

What follows are binders tested against T1, mouse TF ECD-His6 (assay: SPR (Biacore), antibody on chip, TF-His titrated).

Row | Binder | Kd [nM]
18 | B1 | 21
19 | B2 | 2.4

The binders below were run against Relipidated TF (UniProt P13726 33-295, limits assumed) (assay: cell-based or functional assay).

Row | Binder | TGA % ETP, 10 nM Ab, 10 min pre-incubation [%] | TGA % ETP, 50 nM Ab, 10 min pre-incubation [%] | TGA % ETP, 100 nM Ab, 10 min pre-incubation [%] | TGA % Peak IIa, 10 nM Ab, 10 min pre-incubation [%] | TGA % Peak IIa, 50 nM Ab, 10 min pre-incubation [%] | TGA % Peak IIa, 100 nM Ab, 10 min pre-incubation [%] | TGA ETP, 10 nM Ab, 10 min pre-incubation [nM·min] | TGA ETP, 50 nM Ab, 10 min pre-incubation [nM·min] | TGA ETP, 100 nM Ab, 10 min pre-incubation [nM·min] | TGA Lag Time, 10 nM Ab, 10 min pre-incubation [min]
20 | B5 | 73 | 68 | 64 | 30 | 27 | 26 | 1250 | 1170 | 1100 | 10.4
21 | B6 | 28 | 20 |  | 9 | 7 | 7 | 482 | 346 |  | 20.8

Same assay, conditions: not given

Row | Binder | TGA Lag Time, 50 nM Ab, 10 min pre-incubation [min] | TGA Lag Time, 100 nM Ab, 10 min pre-incubation [min] | TGA Peak IIa, 10 nM Ab, 10 min pre-incubation [nM] | TGA Peak IIa, 50 nM Ab, 10 min pre-incubation [nM] | TGA Peak IIa, 100 nM Ab, 10 min pre-incubation [nM] | TGA ttPeak, 10 nM Ab, 10 min pre-incubation [min] | TGA ttPeak, 50 nM Ab, 10 min pre-incubation [min] | TGA ttPeak, 100 nM Ab, 10 min pre-incubation [min]
22 | B5 | 14.2 | 15.1 | 78 | 70 | 68 | 20.2 | 24.3 | 25.3
23 | B6 | 28.4 | 28 | 25 | 17 | 17 | 30.7 | 38.9 | 40.2

The binders below were run against T2, human Tissue Factor on MDA-MB-231 cells (assay: flow cytometry, MDA-MB-231 cells; binding of 20 nM FVII-Fc-Alexa488 (competitor) left at 250 nM Ab).

Row | Binder | % FVIIa [%]
24 | B3 | 6
25 | B4 | 3
26 | B5 | 2
27 | B6 | 2
28 | B7 | 2

The binders below were run against T2, human Tissue Factor on MDA-MB-231 cells (assay: flow cytometry, MDA-MB-231 cells; binding of 20 nM FVII-Fc-Alexa488 (competitor) left at 28 nM Ab).

Row | Binder | % FVIIa [%]
29 | B3 | 7
30 | B4 | 4
31 | B5 | 3
32 | B6 | 2
33 | B7 | 3

Molecular target: T2, human Tissue Factor on MDA-MB-231 cells
Test: cell-based or functional assay
Remark: another data set of the same source

Row | Binder | % FXa, 12.5 nM Ab [%] | % FXa, 25 nM Ab [%] | % FXa, 50 nM Ab [%] | % FXa, 100 nM Ab [%]
34 | B3 | 55 | 48 | 41 | 41
35 | B4 | 85 | 77 | 75 | 75
36 | B5 | 81 | 68 | 63 | 66
37 | B7 | 53 | 44 | 41 | 42
